Reference: a protein production outcome set (Wang et al. 2014)

Assay: label from the status in PepcDB records

Protein production, failed:
MSVADSYFDELFRNNDDPWAFKQRWYERRKRALTLAALPRERYRAIFEPGCANGELSADLAERCDMLVCCDTSTQAVELARQRLADVPHARVVQARLPHQWPAGQFDLIVFSELGYYLDAADLHRLIDCALAALSPDGQLLACHWRPDIEGCPLNAQAVHAILAERLSMHRLFSHHEQDFLLDLWSRDGLEHHHHHH
MSVASLPSFLCLSQESSRRASARRESPSSPRTWAGWIPVTGTGMRECVVALCLLLTLIFAAASPALAFNPDEVLKDPVLEQRARNLTSQLRCMVCQNQSIDDSNAELARDLRVLVRERLVQGDSDKAVIDYVVSRYGEFVLLKPRLSLRTLLLWGAPIGLTLAGIFAVFVFSRRRATQERPQKLSADEEERIRNLIEK
MSVDDSADVVVVGAGPAGSAAAAWAARAGRDVLVIDTATFPRDKPCGDGLTPRAVAELHQLGLGKWLADHIRHRGLRMSGFGGEVEVDWPGPSFPSYGSAVARLELDDRIRKVAEDTGARMLLGAKAVAVHHDSSRRVVSLTLADGTEVGCRQLIVADGARSPLGRKLGRRWHRETVYGVAVRGYLSTAYSDDPWLTSHLELRSPDGAVLPGYGWIFPLGNGEVNIGVGALSTSRRPADLALRPLISYYTDLRRDEWGFTGQPRAVSSALLPMGGAVSGVAGSNWMLIGDAAACVNPLNGEGIDYGLETGRLAAELLDSRDLARLWPSLLADRYGRGFSVARRLALLLTFPRFLPTTGPITMRSTALMNIAVRVMSNLVTDDDRDWVARVWRGGGQLSRLVDRRPPFS
MSVDPKLIRQKIQRLDAGARPRVLDLFSGCGGISLGFQSAGFEIVAAVENDPDAARSHGLNFHHGEDRHSIPRNITVTSPAALATALGLGAAASAFDVIVGGPPCQAFARVGRSKLREIAEHPEAFRHDSRARLYIEYLAYVEACAPLAVVIENVPDMLNHGGHNLAAEIGEILASKDYVVRYTLLNAAFYGVPQMRERMILIAIRKELADDVEFPAPTHWIDLPSGYQGSRAVALKLATGRDLLTEATGGSAYKAAPEAVETLAPAVSTQQAIGDLPEIMARELLAEGALRRGTRRLDAMLPYGGHNQQNDYVKEMRTWPGFEGSSHVRDHVIRYLPRDYRIFAGLKPGDQYPEAHRYALSLFEAELERLHAQGKRPEDGSSEWDALKAAFVPPYDAGKFPNKWRKMEATTPARTLLAHLGKDGYSHIHYDSRQARPISVREAARLQSFPDGFRFAGTMNPAFRQIGNAVPPLLARAIAQTLRSQLVRGVATEDLPRVAGAGR
MSVFTKTSVASAATTCLFVLLWSSGAIVSKLGLAHASPFAFLLLRSALALAGLLLIGPLLGLRWPRTRGSILRALGTGCVLLGAYQIFYLLALDTHVTPGVMATVMGVQPILTVVLMERQRSWSRLFGLGLGLGGLIMVVYQGINLGGVSLAGMLFALLALVSMTFGSILQKRITDNPMGTLPLQYLAGFAMCALFAPLQPLHVEWTGSFVGALLWMGLVVSLLATLLLYRLIAKGNLVNVTSLFYLVPAVTAVMDLLIFGNRLAPLSLLGMGLIVVGLLFVFRKPAARLAEA
MSVGCARIRRALRHGTSPARQHDAAAASHRRAPVVRIRMDIDAALGEQYVDYRCSRCGMVAQAAVAGYGTGLVVNGVSLSNAQLEAEVGAARAARLAPCPRCGHRGRPALLGVLLVGATVGVVAAMAIGFTVAELFHRSDPEGRLAPVVGTATFVAVVATMTALKLRSVRRRVRFHRVML
MSVIHPLQNLLTSRDGSLVFAIIKNCILSFKYQSPNHWEFAGKWSDDFDKIQESRNTTAKEQQGQSSENENENKKLKSNKGDSIKRTAAKVPSPGLGAPPIYSYIRNLRLTSDESRLIACADSDKSLLVFDVDKTSKNVLKLRKRFCFSKRPNAISIAEDDTTVIIADKFGDVYSIDINSIPEEKFTQEPILGHVSMLTDVHLIKDSDGHQFIITSDRDEHIKISHYPQCFIVDKWLFGHKHFVSSICCGKDYLLLSAGGDDKIFAWDWKTGKNLSTFDYNSLIKPYLNDQHLAPPRFQNENNDIIEFAVSKIIKSKNLPFVAFFVEATKCIIILEMSEKQKGDLALKQIITFPYNVISLSAHNDEFQVTLDNKESSGVQKNFAKFIEYNLNENSFVVNNEKSNEFDSAIIQSVQGDSNLVTKKEEIYPLYNVSSLRKHGEHYS
MSVIIAANNLCLQYQQNEPVIKHANLRIKRKDFVFISGPSGSGKSTLLRSFYGDLKLFSGKLEVCNINMNNASKATILDLRKNIGVVFQDYKLIQDYTIEQNIKLPMVICGIKKEECHLQLEKLLGHIDLRHKANRYPKELSGGEQQRVAMARAMANCPELILADEPTGNLDDYSSDKIWSLLRGMNTQLNATIVVVTHKFPKNFSAYHRKFYIEDGEVYEYS
MSVKRVLRNTIRKEKEENRVTEPLTETPELSAKYAWFFDLDGTLAEIKPHPDQVVVPDTILQGLQLLATASDGALALISGRSMVELDALAKPYRFPLAGVHGAERRDINGKTHIVHLPDAIARDISVQLHTVIAQYPGAELEAKGMAFALHYRQAPQHEDALMTLAQRITQIWPQMALQQGKCVVEIKPKGTSKGEAIAAFMQEAPFIGRTPVFLGDDLTDESGFAVVNRLGGMSVKIGTGATQASWRLAGVPDVWSWLEMITTALQQKRENNRSDDYESFSRSI
MSVKVSEYMTKKVVTVSKDNTVKDVIKLLKETGHNSFPVVENGKLIGIVSVHDIVGKDDNEKVENVMTKRKDMVVTTPDANIMDVGRIMFRTGFSKLPVVDEENNLVGIISNMDVIRSQIEKTTPKKLENIIKTYKSLGYNLRVEKEEVDVNKLRPTQNKIHADELVGRMYELKKGLAEPIIAIKTKRGDYYILVDGHHRAVAAYKMGVPKLDAYVIYLDTDKKLGIEKTAEIMNLKSLEDVKIVDSDDENSVKVIKYNKNGVLG
MSVLDLPELALDCILDLLPPSGLCSMARVCSSLRERCVSDHLWEKHLKTKWGKILGPAAHREWQCYISSSTYHLDSPHHQTGNLGFAKIISLIRSLSSVFREDKQRRGYASSLPLDSSMSCYLSLETGRFWFPAQVYNRENGHVGFMLSCYDAELSYDTHTDTFQARYPPHGRRASAIEKGVTWDRIRAAPIDASPHLLHVSDSLKELKPGDHIEIQWRRNKEFPYGK
MSVTVFIPGDSAALAVGANRVAEAIAREAASRNLDVQIVRNGSRGMLWLEVLVEVRTEHGRIAYGPVKAADVTSLFDADFLDGGDHRLCLGPTKDIPFLKNQTRLTFARCGVTDPLSLEDYRNYQGMKGLEKAVTMEPLAIVAQVTESGLRGRGGAGFPTGIKWKTVADARADQKYIVCNADEGDSGTFADRMIMEGDPFVLIEGMAIAGLAVGATKGFIYTRSEYPYAIKVMEKAIEIARREGILGSSVLGSGRAFDMEVRMGAGAYVCGEETSLLNSLEGKRGTVRAKPPLPALQGLFGKPTVVNNVISLASIPVIMDRGAAFYRDFGVGRSHGTIPIQLAGNIRYGGLYETAFGLTLGQLVNDIGGGTITGRPVKAVQVGGPLGAYFPVSLFDTIFDYEAFTAAGGLIGHAGIVVFDDTADMLHQARFALEFCAVESCGKCTPCRIGSTRGVETVDKIALGIEREKNTALLEDLCETMKFGSLCALGGFTPYPVMSALRHFPQDFAPIPRVEAAELEHHHHHH
MSVTVRVPAKVNVQLAVGAARPDGFHDLANVFLAVSLYDEVTATPAADGLRVTCEGPDAGQVPLDRTNLAARAAEALAARYGRAPDVHLHIAKDIPVAGGMAGGSADGAGALLACDALWGTGASREELLEICAGLGSDVPFSLVGGAALGTGRGERLAELE
MSWAAPDDIFFSTSLAAYLDKKLLVLLRDGRKLMGLLRSFDQFANAVLEEAYERVIVGDLYCDIPLGLYIIRGENVVLIGELDVEKEELPAHMVQVPEAEIKRAQKAEKEEMLLKGTMRKRMEFLDLD
MSWTVDIPKEVLPDLPPLPEGMQQQFEDTISRDAKQQPTWDRAQAENVRKILESVPPIVVAPEVLELKQKLADVANGKAFLLQGGDCAETFESNTEPHIRANVKTLLQMAVVLTYGASTPVIKMARIAGQYAKPRSSDLDGNGLPNYRGDIVNGVEATPEARRHDPARMIRAYANASAAMNLVRALTSSGTADLYRLSEWNREFVANSPAGARYEALAREIDSGLRFMEACGVSDESLRAADIYCSHEALLVDYERSMLRLATDEEGNEELYDLSAHQLWIGERTRGMDDFHVNFASMISNPIGIKIGPGITPEEAVAYADKLDPNFEPGRLTIVARMGHDKVRSVLPGVIQAVEASGHKVIWQSDPMHGNTFTASNGYKTRHFDKVIDEVQGFFEVHRALGTHPGGIHIEFTGEDVTECLGGAEDITDVDLPGRYESACDPRLNTQQSLELAFLVAEMLRN
MSYDVIVRNGLWFDGTGRPPQVRTLGIRDGVVATVSAKPLDETGCPEVIDAGGKWVVPGFIDVHTHYDAEVLLDPGLRESVRHGVTTVLLGMCSLSTVYSDAEDAADLFSRVEAVPRQFVLGALESRKTWSNPAEYVAAIDALPLGPNIASLLGHSDLRASVLGLDRATTRGVVPTDDELETMADRLDAALDAGMLGMSGMDAAIDKLDGDRFRSRALPSTFATWRERRRLIKVLRKRGRILQSAPNVAKAQEALNFFLESSSLFGRRRGVRMSLLVSADAKSSPGAARVIGMGTRLLNKTLDAKVRFQHLPVPFELYSDGIDLPVFEEFGAGTAALHLRDQLERNKLLADPEYRRRFRRSFDRRKLGPTLWHRDFHDATIVECPDESLIGKTFGRIADERGIHPLDAFLDVLVDNGEKNVRWTTIVANHRPKVLDQLANDPAVHMGFSDAGAHLRNMAFYNYPLRLLKRVRDAQLSGRPFLTTERAVYRLTAEVADWFGVDAGTLREGDRADFVVIDPNCLNSDVDAYHEETVPFYGGLSRMVNRNDDAVVATAVNGTVVFGKGEFRDGYGDTVKSGRYLRAGADSRLKTAVLEHHHHHH
MSYIRLVTWNVDFDSPFNYERFTAIAEEVLGAKPGVVLFQEVSDLPFSSWQGEKEQSTITSARQHDSCYKVLLRRLEALYEPIVDLGLPSEQAYFVMAFVDRSKYRVHGYEYTEFENSSQGRGLLAIQLEPRDMCGDFKFRVLTSHLESGTACSEVRVQQMRQIAYEMLEGDTPAIFAGDTNFREKEKAGFEKEIAKAIGSEEMRLFDLFVEVGEPSHLRFTWDTRTNTNKVKELPPRFRPRARFDQVLFTRPFQANAMRLLGRERLGHAVFPSDHYGIYGELRF

Protein production, not failed:
MSVAHENARRIISDILGKQNIERVWFVGCGGSLTGFWPGKYFLDCEASKLAVGYITSNEFVHATPKALGKNSVVILASQQGNTAETVAAARVAREKGAATIGLVYQPDTPLCEYSDYIIEYQWARYPETVDPAQQKAAYSLWLALEILAQTEGYAQYDELVSAFGRFSDVVHGAQRQVQEDAQRFAAEWKDEKVVYMMGSGPSFGAAHQESICILLEMQWINSASIHSGEYFHGPFEITEPGTPFILLQSSGRTRPLDDRAIRFIERYQGKLQLIDADKLGIQDLSTDVGEYFCGLLHNCVLDVYNLALATARNHPLTTRRYMWKVEY
MSVEIKRVDKHHCLDLVEIFIELEQYYFGDKAASEQDLANYLSHQVFSEHSGVKVIAAVEHDKVLGFATYTIMFPAPKLSGQMYMKDLFVSSSAPGKGIGLQLMKHLATIAITYNCQRLDWTAESTNPTARKFYKSIGASLIREKEYYRFEGNGLNKLAKSL
MSVMYKKILYPTDFSETAEIALKHVKAFKTLKAEEVILLHVIDEREIKKRDIFSLLLGVAGLNKSVEEFENELKNKLTEEAKNKMENIKKELEDVGFKVKDIIVVGIPHEEIVKIAEDEGVDIIIMGSHGKTNLKEILLGSVTENVIKKSNKPVLVVKRKNS
